Experimental data as given in PMC11559003.

Columns and labels:
[1] = target: T1, CRP (cAMP receptor protein) (Escherichia coli) (UniProt P0ACJ8); experiment: EMSA; conditions: EMSA: 10 nM probe, 1x Beyotime EMSA/Gel-Shift Binding Buffer, 25 C 30 min, 6% PAGE at 4 C in 0.5x TBE + 200 uM cAMP; BLI: 10 mM HEPES, 2 mM MgCl2, 0.1 mM EDTA …
T1 sequence: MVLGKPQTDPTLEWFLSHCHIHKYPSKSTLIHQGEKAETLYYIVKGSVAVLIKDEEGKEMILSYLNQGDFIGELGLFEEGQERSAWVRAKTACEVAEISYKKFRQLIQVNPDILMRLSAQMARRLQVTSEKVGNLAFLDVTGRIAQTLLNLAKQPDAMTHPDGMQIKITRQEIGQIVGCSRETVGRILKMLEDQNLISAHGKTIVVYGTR

[2] = system: CRP (cAMP receptor protein) (Escherichia coli); experiment: BLI; conditions: EMSA: 10 nM probe, 1x Beyotime EMSA/Gel-Shift Binding Buffer, 25 C 30 min, 6% PAGE at 4 C in 0.5x TBE + 200 uM cAMP, BLI: 10 mM HEPES, 2 mM MgCl2, 0.1 mM EDTA …

Row | Substance | binding [1] | Kd ([2]; cAMP + (p)ppGpp) | Kd ([2]; cAMP, no (p)ppGpp)
1 | AGCCAGTGGCGATAAGCGGAGTCTGCGAGGACGCTTCCTGAAAATCGTCTTTATTGCAGTGAATGACAGGCAAATGCGGAAGCAGCTACGCAAAACGCAACAACTTTGCGCAAAAAGTGTGAGCAAGGGCTACGTCACATGGCCGCGCCGTGTATAATAAGCTCGTATGTAGGCTTTATTTCGCTAATCACATACGAAAGATACTCATGGCTCAAGGCACGCCTTATCGCCACTGGCT (double strand) [spoT promoter probe] | binds |  | 
2 | relA promoter probe |  | 110 µM | 13 µM
